Test results from US20060292657A1, “Phex substrates and methods using same” (priority 2003, published 2006).
Marks after values point to notes of the source that are not given here.

Legend:
Assay in all cases: Kinetic parameters for hydrolysis of internally quenched fluorogenic peptides by secPHEX
Type in all cases: biochemical, human
[1] = substrate: CC(C)C[C@H](NC(=O)[C@H](Cc1c[nH]cn1)NC(=O)[C@@H](NC(=O)c1ccccc1N)[C@@H](C)O)C(=O)N[C@@H](CC(=O)O)C(=O)N[C@H](C(=O)N[C@@H](CCCCN)C(=O)N[C@@H](CCCCN)C(=O)N[C@@H](CCC(N)=O)C(=O)NCCNc1ccc([N+](=O)[O-])cc1[N+](=O)[O-])[C@@H](C)O; conditions: other: 37° C., 10 mM Bis-Tris buffer pH 5.5, 150 mM NaCl
Procedure, shortened: (§1)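 Purified human recombinant secPHEX hydrolysing internally quenched fluorogenic peptides at 37° C in 10 mM Bis-Tris pH 5.5, 150 mM NaCl; fluorescence (ex 320, em 420 nm) followed continuously, <5% substrate hydrolysed, inner-filter corrected. Km and kcat by non-linear regression; kcat/Km under [S]<<Km where applicable.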

[2] = substrate: CC[C@H](C)[C@H](NC(=O)[C@H](CC(=O)O)NC(=O)[C@H](CC(N)=O)NC(=O)[C@H](CO)NC(=O)CNC(=O)c1ccccc1N)C(=O)N[C@@H](CCSC)C(=O)NCC(=O)N[C@@H](CCC(N)=O)C(=O)NCCNc1ccc([N+](=O)[O-])cc1[N+](=O)[O-]; conditions: other: 37° C., 10 mM Bis-Tris buffer pH 5.5, 150 mM NaCl
Procedure, shortened: as §1

[3] = substrate: C[C@H](NC(=O)[C@H](CCC(N)=O)NC(=O)[C@H](CO)NC(=O)[C@H](CC(=O)O)NC(=O)[C@H](CCCNC(=N)N)NC(=O)[C@H](CCC(N)=O)NC(=O)[C@@H]1CCCN1C(=O)CNC(=O)c1ccccc1N)C(=O)N[C@@H](CCC(N)=O)C(=O)NCCNc1ccc([N+](=O)[O-])cc1[N+](=O)[O-]; conditions: other: 37° C., 10 mM Bis-Tris buffer pH 5.5, 150 mM NaCl
Procedure, shortened: as §1

[4] = substrate: Nc1ccccc1C(=O)NCC(=O)N[C@@H](Cc1ccccc1)C(=O)N[C@@H](CO)C(=O)N[C@@H](CC(=O)O)C(=O)N[C@@H](Cc1ccc(O)cc1)C(=O)N[C@@H](CCCCNc1ccc([N+](=O)[O-])cc1[N+](=O)[O-])C(=O)O; conditions: other: 37° C., 10 mM Bis-Tris buffer pH 5.5, 150 mM NaCl
Procedure, shortened: as §1

[5] = substrate: Nc1ccccc1C(=O)NCC(=O)N[C@@H](Cc1ccccc1)C(=O)N[C@@H](CO)C(=O)N[C@@H](CCC(=O)O)C(=O)N[C@@H](Cc1ccc(O)cc1)C(=O)N[C@@H](CCCCNc1ccc([N+](=O)[O-])cc1[N+](=O)[O-])C(=O)O; conditions: other: 37° C., 10 mM Bis-Tris buffer pH 5.5, 150 mM NaCl, [S]<<Km
Procedure, shortened: as §1

B1: human recombinant secPHEX (Homo sapiens) (protein)
chain: SLQAKQEYCLKPECIEAAAAILSKVNLSVDPCDNFFRFACDGWISNNPIPEDMPSYGVYPWLRHNVDLKLKELLEKSISRRRDTEAIQKAKILYSSCMNEKAIEKADAKPLLHILRHSPFRWPVLESNIGPEGVWSERKFSLLQTLATFRGQYSNSVFIRLYVSPDDKASNEHILKLDQATLSLAVREDYLDNSTEAKSYRDALYKFMVDTAVLLGANSSRAEHDMKSVLRLEIKIAEIMIPHENRTSEAMYNKMNISELSAMIPQFDWLGYIKKVIDTRLYPHLKDISPSENVVVRVPQYFKDLFRILGSERKKTIANYLVWRMVYSRIPNLSRRFQYRWLEFSRVIQGTTTLLPQWDKCVNFIESALPYVVGKMFVDVYFQEDKKEMMEELVEGVRWAFIDMLEKENEWMDAGTKRKAKEKARAVLAKVGYPEFIMNDTHVNEDLKAIKFSEADYFGNVLQTRKYLAQSDFFWLRKAVPKTEWFTNPTTVNAFYSASTNQIRFPAGELQKPFFWGTEYPRSLSYGAIGVIVGHEFTHGFDNNGRKYDKNGNLDPWWSTESEEKFKEKTKCMINQYSNYYWKKAGLNVKGKRTLGENIADNGGLREAFRAYRKWINDRRQGLEEPLLPGITFTNNQLFFLSYAHVRCNSYRPEAAREQVQIGAHSPPQFRVNGAISNFEEFQKAFNCPPNSTMNRGMDSCRLW
notes: pure soluble form of PHEX (secPHEX); made in house
- Km [1]: 15.0 µM
- kcat [1]: 0.02 s⁻¹
- kcat/Km [1]: 1300 M⁻¹ s⁻¹
- Km [2]: 13.0 µM
- kcat [2]: 0.01 s⁻¹
- kcat/Km [2]: 800 M⁻¹ s⁻¹
- Km [3]: 47.0 µM
- kcat [3]: 0.2 s⁻¹
- kcat/Km [3]: 4300 M⁻¹ s⁻¹
- Km [4]: 3.0 µM
- kcat [4]: 0.5 s⁻¹
- kcat/Km [4]: 166700 M⁻¹ s⁻¹
- kcat/Km [5]: 9.0* mM^−1 s^−1
